IntAct's records for PubMed 24705590

B1: Microcin J25 (Escherichia coli), Q9X2V7 (parent)
chain: MIKHFHFNKLSSGKKNNVPSPAKGVIQIKKSASQLTKGGAGHVPEYFVGIGTPISFYG

Variants of: B1
Details: with fhua_ecoli fhuA

Variant	effect of a mutation on the interaction
H42K	decreasing interaction strength
